Measured values: patent publication US20170137511A1

Biological target: biotinylated human IL-15 (R&D Systems cat. no. NF150) (human) (UniProt P40933)
Test: blocking ELISA: biotinylated human IL-15 (100 pM) binding to plate-bound IL-15Rα-Fc, antibody titrated, streptavidin-peroxidase, absorbance at 450 nm; the filing does not say in words which of the two partners the control antibody binds

biotinylated human IL-15 (R&D Systems cat. no. NF150) (human), sequence (P40933 49-162 limits assumed): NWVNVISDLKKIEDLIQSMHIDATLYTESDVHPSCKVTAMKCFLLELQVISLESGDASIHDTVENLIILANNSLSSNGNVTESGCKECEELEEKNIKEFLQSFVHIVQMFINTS

In the case of “antibody known to block IL-15 binding to IL-15Rα (R&D Systems cat. no. NF150)”, the IC50 (read off the curve) is reported as 10000 ng/mL.
